Test results from patent US20240024498A1 (JIANGSU HENGRUI PHARMACEUTICALS, published 2024).
Where two headings read alike, the source gives them in different places.

Assays:
human Claudin18.2 [1] = biological target: human Claudin18.2 (human); test: cell-based or functional assay
human Claudin18.2 [2] = biological target: T1, human Claudin18.2 (human); test: cell-based ELISA on fixed NUGC4 cells stably expressing Claudin18.2
T1 construct: also called hClaudin18.2; huClaudin18.2
Description: (§1) Cell-based ELISA assay was used to test the binding properties of the Claudin18.2 antibodies. The stably transfected Claudin18.2-expressing NUGC4 cells were cultured in a 96-well cell plate (Corning, 3599). When growing at 90% density, the cells were immobilized with 4% paraformaldehyde for 1 h. The plate was washed 3 times with PBST buffer (pH 7.4 PBS containing 0.05% Tween-20), and a PBS-diluted 5% skim milk (powdered skim milk from Brightdairy) blocking solution was added at 200 μL/well. The plate was incubated in a 37° C. incubator for 2.5 h or was let stand at 4° C. overnight (16-18 h) for blocking. After blocking, the blocking solution was removed. The plate was washed 3 times with the PBST buffer, and then a test antibody that was diluted with a sample diluent (pH 7.4 PBS containing 1% skim milk) to different concentrations was added at 50 μL/well. The plate was incubated in a 37° C. incubator for 2 h. […] The plate was incubated at 37° C. for 1 h. The plate was washed 6 times with PBST, and then TMB chromogenic substrate (KPL, 52-00-03) was added at 50 µL/well. The plate was incubated at room temperature for 10-15 min, and the reaction was terminated by adding 1 M H₂SO₄ at 50 μL/well. The absorbance at 450 nm was read using an MD Versa Max™ microplate reader, and the binding EC50 value of the Claudin18.2 antibody to Claudin18.2 was calculated.

human Claudin18.2 [3] = biological target: T1, human Claudin18.2; test: cell-based ELISA (absorbance at 450 nm) on fixed NUGC4 cells stably expressing Claudin18.2
Description: as §1

human Claudin18.2 [4] = biological target: T1, human Claudin18.2; test: flow cytometry on HEK293/hClaudin18.2 cells, Scatchard plot
Description: On the day of experiment, HEK293/hClaudin18.2 cells were collected into a U-bottomed 96-well plate at 1×10⁵ to 2×10⁵ cells per well. A human Claudin18.2 antibody that was 2× diluted serially (12 concentration points) from an initial concentration of 5 μg/mL was added, and the plate was incubated at 4° C. for 1 h. IMAB362 was used as a positive control, and a negative control with no antibody was also provided. The antibody was removed by centrifugation, and FITC anti-human IgG Fc antibody (200×) was added at 100 μL/well. The plate was incubated in the dark at 4° C. for 30 min and washed twice with PBS+2% FBS before flow cytometry analysis. BD FACS CantoII was started and preheated, and then the BD FACSDiva software was run to start a new experiment. […] The samples in the U-bottomed 96-well plate were tested at the saved voltage, and data were recorded. The experimental data were analyzed using Flowjo software to obtain a Geo mean, and an MESF-Geo Mean standard curve was fit according to the instructions for Quantum™ FITC-5 MESF Kit. The molar concentration of the human Claudin18.2 antibody bound to HEK293/hClaudin18.2 cells and the free antibody concentration were calculated according to the concentration fluorescence value of the FITC anti-human IgG Fc antibody, and the Bmax and the dissociation constant KD of the antibody were calculated through Scatchard plots.

human Claudin18.2 [5] = biological target: T1, human Claudin18.2; test: cell-based or functional assay; remark: listed apart in the source
human Claudin18.2 [6] = biological target: T1, human Claudin18.2; test: cell-based ELISA (absorbance at 450 nm) on fixed NUGC4 cells stably expressing Claudin18.2; remark: listed apart in the source
Description: as §1

human Claudin18.2 [7] = biological target: T1, human Claudin18.2; test: cell-based ELISA on fixed NUGC4 cells stably expressing Claudin18.2; remark: listed apart in the source
Description: as §1

human Claudin18.2 [8] = biological target: T1, human Claudin18.2; test: as above; remark: listed apart in the source
Description: as §1

human Claudin18.2 [9] = biological target: T1, human Claudin18.2; test: cell-based ELISA (absorbance at 450 nm) on fixed NUGC4 cells stably expressing Claudin18.2; remark: listed apart in the source
Description: as §1

Row | EC50 (human Claudin18.2 [2]) | Emax (human Claudin18.2 [3]) | Emax (human Claudin18.2 [6]) | EC50 (human Claudin18.2 [8]) | Binder | in vitro cell killing EC50, NUGC4-claudin18.2 high expression cells (CellTiter-Glo) (human Claudin18.2 [5]) | in vitro cell killing EC50, NUGC4-claudin18.2 low expression cells (CellTiter-Glo) (human Claudin18.2 [5]) | in vitro cell killing Emax, NUGC4-claudin18.2 high expression cells (CellTiter-Glo) (human Claudin18.2 [5]) | in vitro cell killing Emax, NUGC4-claudin18.2 low expression cells (CellTiter-Glo) (human Claudin18.2 [5]) | also measured
1 | 0.076 nM | 1.44 |  |  | h1901-11 (antibody, human IgG1, kappa, V domains shown, Humanized antibody of mAb1901, L3 + H3, human IgG1/kappa) VH: EVQLVESGGGLVQPGGSLRLSCAASGFTFSDYGIHWVRQAPGKGLEWIAYISRGSSTIYYADTVKGRFTISRDNAKNSLYLQMTSLRAEDTAVYYCARGGYDTRNAMDYWGQGTTVTVSS VL: DIVMTQSPDSLAVSLGERATISCKSSQSLLNSGNQKNYLAWYQQKPGQPPKLLIYGASTRASGVPDRFSGSGSGTDFTLTISSLQAEDVAIYHCQNDLYYPLTFGQGTKLEIKR |  |  |  |  | ADCC effect, IC50 (FcrR3A-V158-NFAT-RE-Jurkat reporter; NUGC4 cells, high Claudin18.2 expression) (human Claudin18.2 [1]): 0.0262 µg/mL; ADCC effect, IC50 (FcrR3A-V158-NFAT-RE-Jurkat reporter; NUGC4 cells, low Claudin18.2 expression) (human Claudin18.2 [1]): 0.0224 µg/mL; ADCC effect, IC50 (FcrR3A-V158-NFAT-RE-Jurkat reporter; NUGC4 cells, moderate Claudin18.2 expression) (human Claudin18.2 [1]): 0.0154 µg/mL; Kd (human Claudin18.2 [4]): 6.8 nM
2 | 0.116 nM | 1.22 |  |  | h1901-12 (antibody, human IgG1, kappa, V domains shown, Humanized antibody of mAb1901, L3 + H4, human IgG1/kappa) VH: EVQLVESGGGLVQPGGSLRLSCAASGFTFSDYGIHWVRQAPGKGLEWVAYISRGSSTIYYADTVKGRFTMSRDNAKNSLYLQMTSLRAEDTAVYYCARGGYDTRNAMDYWGQGTTVTVSS VL: DIVMTQSPDSLAVSLGERATISCKSSQSLLNSGNQKNYLAWYQQKPGQPPKLLIYGASTRASGVPDRFSGSGSGTDFTLTISSLQAEDVAIYHCQNDLYYPLTFGQGTKLEIKR |  |  |  |  | 
3 |  |  | 1.27 | 0.074 nM | chimeric antibody ch1902 (antibody, human IgG1, kappa, V domains shown, Murine mAb1902 variable regions on human IgG1 / kappa constant regions) VH: EVQLQESGAELVKPGASVKLSCKASGYIFTSYWMHWVKQRPGQGLEWIGMIHPNSGSTNYNEKFKGKATLTLDKSSSTAYMQLSSLPSEDSAVYYCARLKTGNSFDYWGQGTTLTVSS VL: DIVLTQSPSSLTVTAGEKVTMSCKSSQSLLNSGNQKNYLTWYQQKPGQPPKLLIYWASTRESGVPDRFTGSGSGTDFTLTISSVQAEDLAIYYCQNAYTYPFTFGSGTKLEIKR |  |  |  |  | 

Further lines, the binder ahead of its results:

Row | Binder | EC50 (human Claudin18.2 [2]) | Emax (human Claudin18.2 [3]) | Emax (human Claudin18.2 [6]) | EC50 (human Claudin18.2 [8]) | in vitro cell killing EC50, NUGC4-claudin18.2 high expression cells (CellTiter-Glo) (human Claudin18.2 [5]) | in vitro cell killing EC50, NUGC4-claudin18.2 low expression cells (CellTiter-Glo) (human Claudin18.2 [5]) | in vitro cell killing Emax, NUGC4-claudin18.2 high expression cells (CellTiter-Glo) (human Claudin18.2 [5]) | in vitro cell killing Emax, NUGC4-claudin18.2 low expression cells (CellTiter-Glo) (human Claudin18.2 [5]) | also measured
4 | ADC-2 (antibody, human IgG1, kappa, V domains shown, compound 9-A coupled to sulfhydryl groups after TCEP reduction; mean drug loading n=7.1 per antibody; positions not given) VH: EVQLVESGGGLVQPGGSLRLSCAASGFTFSDYGIHWVRQAPGKGLEWIAYISRGSSTIYYADTVKGRFTISRDNAKNSLYLQMTSLRAEDTAVYYCARGGYDTRNAMDYWGQGTTVTVSS VL: DIVMTQSPDSLAVSLGERATISCKSSQSLLNSGNQKNYLAWYQQKPGQPPKLLIYGASTRASGVPDRFSGSGSGTDFTLTISSLQAEDVAIYHCQNDLYYPLTFGQGTKLEIKR |  |  |  |  | 1.9 nM | 109 nM | 91.1 | 69.8 | in vitro cell killing EC50, NUGC4-claudin18.2 moderate expression cells (CellTiter-Glo) (human Claudin18.2 [5]): 16.8 nM
5 | ADC-3 (antibody, human IgG1, kappa, V domains shown, compound 9-A coupled to sulfhydryl groups after TCEP reduction; mean drug loading n=2.51 per antibody; positions not given) VH: EVQLVESGGGLVQPGGSLRLSCAASGFTFSDYGIHWVRQAPGKGLEWIAYISRGSSTIYYADTVKGRFTISRDNAKNSLYLQMTSLRAEDTAVYYCARGGYDTRNAMDYWGQGTTVTVSS VL: DIVMTQSPDSLAVSLGERATISCKSSQSLLNSGNQKNYLAWYQQKPGQPPKLLIYGASTRASGVPDRFSGSGSGTDFTLTISSLQAEDVAIYHCQNDLYYPLTFGQGTKLEIKR |  |  |  |  | 94 nM | > 500 nM | 78.7 | 49 | 
6 | ADC-4 (antibody, human IgG1, kappa, V domains shown, compound 9-A coupled to sulfhydryl groups after TCEP reduction; mean drug loading n=4.06 per antibody; positions not given) VH: EVQLVESGGGLVQPGGSLRLSCAASGFTFSDYGIHWVRQAPGKGLEWIAYISRGSSTIYYADTVKGRFTISRDNAKNSLYLQMTSLRAEDTAVYYCARGGYDTRNAMDYWGQGTTVTVSS VL: DIVMTQSPDSLAVSLGERATISCKSSQSLLNSGNQKNYLAWYQQKPGQPPKLLIYGASTRASGVPDRFSGSGSGTDFTLTISSLQAEDVAIYHCQNDLYYPLTFGQGTKLEIKR |  |  |  |  | 12 nM | 299 nM | 85 | 61 | 
7 | IMAB-362 (antibody, human IgG1, kappa, V domains shown, Positive control antibody, from WO2016166122; also called positive control antibody) VH: QVQLQQPGAELVRPGASVKLSCKASGYTFTSYWINWVKQRPGQGLEWIGNIYPSDSYTNYNQKFKDKATLTVDKSSSTAYMQLSSPTSEDSAVYYCTRSWRGNSFDYWGQGTTLTVSS VL: DIVMTQSPSSLTVTAGEKVTMSCKSSQSLLNSGNQKNYLTWYQQKPGQPPKLLIYWASTRESGVPDRFTGSGSGTDFTLTISSVQAEDLAVYYCQNDYSYPFTFGSGTKLEIKR | 0.086 nM | 1.11 | 1.18 | 0.108 nM |  |  |  |  | ADCC effect, IC50 (FcrR3A-V158-NFAT-RE-Jurkat reporter; NUGC4 cells, high Claudin18.2 expression) (human Claudin18.2 [1]): 0.133 µg/mL; ADCC effect, IC50 (FcrR3A-V158-NFAT-RE-Jurkat reporter; NUGC4 cells, low Claudin18.2 expression) (human Claudin18.2 [1]): 0.183 µg/mL; ADCC effect, IC50 (FcrR3A-V158-NFAT-RE-Jurkat reporter; NUGC4 cells, moderate Claudin18.2 expression) (human Claudin18.2 [1]): 0.21 µg/mL; EC50 (human Claudin18.2 [7]): 0.187 nM; Kd (human Claudin18.2 [4]): 10.2 nM; Emax (human Claudin18.2 [9]): 0.88
8 | ADC-5 (antibody, human IgG1, kappa, V domains shown, compound 9-A coupled to sulfhydryl groups after TCEP reduction; mean drug loading n=6.8 per antibody; positions not given) VH: EVQLVESGGGLVQPGGSLRLSCAASGFTFSDYGIHWVRQAPGKGLEWIAYISRGSSTIYYADTVKGRFTISRDNAKNSLYLQMTSLRAEDTAVYYCARGGYDTRNAMDYWGQGTTVTVSS VL: DIVMTQSPDSLAVSLGERATISCKSSQSLLNSGNQKNYLAWYQQKPGQPPKLLIYGASTRASGVPDRFSGSGSGTDFTLTISSLQAEDVAIYHCQNDLYYPLTFGQGTKLEIKR |  |  |  |  | 3.5 nM | 142 nM | 95.9 | 69.9 | 
9 | chimeric antibody ch1901 (antibody, human IgG1, kappa, V domains shown, Murine mAb1901 variable regions on human IgG1 / kappa constant regions) VH: EVQLMESGGGLVKPGGSLKLSCAASGFTFSDYGIHWVRQAPEMGLEWIAYISRGSSTIYYADTVKGRFTMSRDNAKNTLFLQMTSLRSEDTAMYYCARGGYDTRNAMDYWGQGTSVTVSS VL: DIVMTQSPSSLSVSAGEKVTMSCKSSQSLLNSGNQKNYLAWYQQKPGQPPKLLIYGASTRASGVPDRFTGSGSGTDFTLTISSVQAEDLAIYHCQNDLYYPLTFGAGTKLELKR |  |  | 1.4 | 0.098 nM |  |  |  |  | 
